Test results from publication PMC9249833.

Target: HisTmod (His-tagged recombinant AjTmod) (Apostichopus japonicus)
Test: MST; Monolith NT.115; His-tagged AjTmod labelled with NT-647-NHS (about 5 uM), 16 serial concentrations of the unlabelled partner; 50 mM Tris-HCl pH 8.0, 0.02% Tween 20; 25 °C; three repeats

Substance: GSTFliC fusion protein (GST-fused Vibrio splendidus AJ01 flagellin C) (natural protein)
- Kd: 8.6 nM
